{"source": "patent US20250066503A1", "about": "“CELL INJURY INDUCING THERAPEUTIC DRUG FOR USE IN CANCER THERAPY” (CHUGAI SEIYAKU KABUSHIKI KAISHA, priority 2016, published 2025)", "key": {"[1]": {"settings": "systemic administration; non-small-cell lung cancer patients; Phase I; cited from earlier work"}, "PC-10 xenograft tumor": {"tested_on": "PC-10 xenograft tumor", "experiment": "In vivo drug efficacy, NOD scid/T cell-injected model, PC-10", "set-up": "species or system NOD scid mice", "settings": "1 mg/kg once through the tail vein, compared to the vehicle-administered group", "protocol": "Methods called an NOD scid/T cell-injected model, a humanized NOG mouse model, and a human CD3εδγ gene-modified mouse model were used in the in vivo drug efficacy evaluation. Assay using an NOD scid/T cell-injected model was performed as follows. […] T cells expanded by culturing human PBMCs in vitro were injected into the NOD scid mice with confirmed tumor establishment. The mice were treated by administering bispecific antibody-38 and bispecific antibody-30, -31, -32, or -33. Assay using a humanized NOG mouse model was performed as follows. CD34-positive hematopoietic stem cells derived from umbilical cord blood were transplanted into NOG mice by tail vein injection. Human T cells are constantly supplied in the mice, which are called humanized NOG mice. The PC-10 cell line was transplanted into humanized NOG mice. The humanized NOG mice with confirmed establishment of PC-10 tumor were treated by administering antibody-38. Assay using a human CD3εδγ gene-modified mouse model was performed as follows. Cells of mouse-derived cell line forced to express human GPC3 were transplanted into a human CD3εδγ gene-modified mouse model, which had been prepared according to Reference Example 10. The human CD3εδγ gene-modified mice with confirmed tumor establishment were treated by administering antibody-38. […]"}, "[2]": {"tested_on": "NCI-H446 human cancer cell line", "experiment": "Cytotoxic activity (cell proliferation inhibition rate, xCELLigence) with human PBMCs", "type": "cell-based", "settings": "human PBMCs as effector cells; NCI-H446 target cells; 72 hours", "protocol": "Using a syringe preloaded with 100 μL of 1,000 units/mL heparin solution (Novo Heparin for injection, 5000 units, Novo Nordisk), 50 mL of peripheral blood was collected from each healthy volunteer (adult individual). This peripheral blood was diluted two-fold in PBS(−), divided into four aliquots, and added into a Leucosep tube for lymphocyte separation (Cat. No. 227290, Greiner Bio-One) that had been loaded with 15 mL of Ficoll-Paque PLUS and subjected to centrifugation in advance. This separation tube was centrifuged (at 2150 rpm for ten minutes at room temperature), and then the mononuclear cell fraction was collected. The cells in the mononuclear cell fraction were washed once with the Dulbecco's Modified Eagle's Medium containing 10% FBS (manufactured by SIGMA, hereinafter referred to as 10% FBS/D-MEM), and then prepared to have a cell density of 4×10^6 cells/mL using 10% FBS/D-MEM. The cell suspension prepared this way was used as the human PBMC solution in the experiment below.\nCytotoxic activity was assessed by the rate of cell proliferation inhibition using the xCELLigence Real-Time Cell Analyzer (Roche Diagnostics). […]\nCytotoxic activity was measured by the method described in Reference Example 1-3-2.\nCDR and FR were determined according to the Kabat definition (Kabat numbering). […]"}}, "note": "Entries after “also recorded” stand apart in the source; their conditions may differ."}
{"molecule": "catumaxomab", "values": [{"measurement": "maximum tolerable dose", "setting": "[1]", "result": 5, "unit": "g/body"}]}
{"molecule": "antibody-39: bispecific antibody; CD3-binding variable region SEQ ID NO: 433, GPC-binding SEQ ID NO: 434, common L chain SEQ ID NO: 435 (antibody, An artificially generated sequence) heavy 1: QVQLVQSGAEVKKPGASVKVSCKASGYTFTDYEMHWIRQPPGQGLEWIGAIDPKTGDTAYSQKFKGRVTLTADKSTSTAYMELSSLTSEDTAVYYCTRFYSYTYWGQGTLVTVSS heavy 2: EVQLVETGGSLVQPGKSLKLTCATSGFTFSNAWMHWVRQSPEKQLEWVAQIKAKSNNYATYYAESVKGRFTISRDDSKSNIYLQMNSLKEEDTAVYYCRYVHYGAYYGVDAWGQGTSVTVSS light: DIVMTQSPLSLPVTPGEPASISCRSSQSLVHSNRNTYLHWYQQKPGQAPRLLIYKVSNRFSGVPDRFSGSGSGTDFTLKISRVEAEDVGVYYCGQGTQVPYTFGQGTKLEIK", "values": [{"measurement": "anti-tumor effect", "setting": "PC-10 xenograft tumor", "result": "evident anti-tumor effect"}]}
{"molecule": "GPC3_ERY27_hCE115: humanized anti-human CD3ε chain and anti-human GPC3 bispecific antibody (SEQ ID NOs: 54, 55, and 56) (protein, An artificially generated sequence) chain 1: QVQLVQSGAEVKKPGASVKVSCKASGYTFTDYEMHWIRQPPGQGLEWIGAIDPKTGDTAYSQKFKGRVTLTADKSTSTAYMELSSLTSEDTAVYYCTRFYSYTYWGQGTLVTVSSASTKGPSVFPLAPCSRSTSESTAALGCLVKDYFPEPVTVSWNSGALTSGVHTFPAVLQSSGLYSLSSVVTVPSSSLGTKTYTCNVDHKPSNTKVDKRVESKYGPPCPPCPAPEFRGGPKVFLFPPKPKDTLMISRTPEVTCVVVDVSQEDPEVQFNWYVDGVEVHNAKTKPREEQFASTYRVVSVLTVLHQDWLNGKEYKCKVSNKGLPSSIEKTISKAKGQPREPQVYTLPPSQKEMTKNQVSLTCLVKGFYPSDIAVEWESNGQPENNYKTTPPVLDSDGSFFLYSRLTVDKSRWQEGNVFSCSVMHEALHNRYTQKSLSLSLHHHHHHHH chain 2: QVQLVESGGGVVQPGRSLRLSCAASGFTFSNAWMHWVRQAPGKGLEWVAQIKAKSNNYATYYAESVKGRFTISRDDSKNSLYLQMNSLKTEDTAVYYCRYVHYGAYYGVDAWGQGTTVTVSSASTKGPSVFPLAPCSRSTSESTAALGCLVKDYFPEPVTVSWNSGALTSGVHTFPAVLQSSGLYSLSSVVTVPSSSLGTKTYTCNVDHKPSNTKVDKRVESKYGPPCPPCPAPEFRGGPKVFLFPPKPKDTLMISRTPEVTCVVVDVSQEDPEVQFNWYVDGVEVHNAKTKPREEQFASTYRVVSVLTVLHQDWLNGKEYKCKVSNKGLPSSIEKTISKAKGQPREPQVYTLPPSQEEMTKNQVSLTCLVKGFYPSDIAVEWESNGQPENNYKTTPPVLDSDGSFFLYSRLTVDKSRWQEGNVFSCSVMHEALHNHYTQESLSLSLDYKDDDDK chain 3: DIVMTQSPLSLPVTPGEPASISCRSSQSLVHSNRNTYLHWYQQKPGQAPRLLIYKVSNRFSGVPDRFSGSGSGTDFTLKISRVEAEDVGVYYCGQGTQVPYTFGQGTKLEIKRTVAAPSVFIFPPSDEQLKSGTASVVCLLNNFYPREAKVQWKVDNALQSGNSQESVTEQDSKDSTYSLSSTLTLSKADYEKHKVYACEVTHQGLSSPVTKSFNRGEC", "values": [{"measurement": "cytotoxic activity (T-cell-dependent cellular cytotoxicity)", "setting": "[2]", "result": "reduction of the activity; also recorded: lower"}]}
